US9133271 (AbbVie / Abbott, dated 2015)
Substitutions are numbered along the chain they refer to.

T1: murine DLL3 on 293 cells (h293-mDLL3) (murine, UniProt O88516 33-584)
T1 sequence: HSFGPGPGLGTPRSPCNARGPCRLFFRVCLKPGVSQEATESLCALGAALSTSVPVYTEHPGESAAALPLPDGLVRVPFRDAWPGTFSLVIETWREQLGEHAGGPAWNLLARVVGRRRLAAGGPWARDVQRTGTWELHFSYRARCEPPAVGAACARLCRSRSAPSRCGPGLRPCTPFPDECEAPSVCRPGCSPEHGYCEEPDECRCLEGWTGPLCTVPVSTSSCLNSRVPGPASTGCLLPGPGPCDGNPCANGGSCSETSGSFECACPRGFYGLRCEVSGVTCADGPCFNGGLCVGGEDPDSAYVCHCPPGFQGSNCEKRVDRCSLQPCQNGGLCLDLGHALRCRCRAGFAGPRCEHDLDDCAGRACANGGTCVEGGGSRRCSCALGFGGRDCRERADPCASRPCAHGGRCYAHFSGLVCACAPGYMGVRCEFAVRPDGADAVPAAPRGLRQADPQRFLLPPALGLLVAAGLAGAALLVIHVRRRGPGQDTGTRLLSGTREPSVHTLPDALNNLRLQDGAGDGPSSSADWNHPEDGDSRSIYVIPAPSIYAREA

T2: human DLL3 on cells (h293-hDLL3 cells; endogenous DLL3 on NTX tumor cells) (human, UniProt Q9NYJ7 27-618)
T2 sequence: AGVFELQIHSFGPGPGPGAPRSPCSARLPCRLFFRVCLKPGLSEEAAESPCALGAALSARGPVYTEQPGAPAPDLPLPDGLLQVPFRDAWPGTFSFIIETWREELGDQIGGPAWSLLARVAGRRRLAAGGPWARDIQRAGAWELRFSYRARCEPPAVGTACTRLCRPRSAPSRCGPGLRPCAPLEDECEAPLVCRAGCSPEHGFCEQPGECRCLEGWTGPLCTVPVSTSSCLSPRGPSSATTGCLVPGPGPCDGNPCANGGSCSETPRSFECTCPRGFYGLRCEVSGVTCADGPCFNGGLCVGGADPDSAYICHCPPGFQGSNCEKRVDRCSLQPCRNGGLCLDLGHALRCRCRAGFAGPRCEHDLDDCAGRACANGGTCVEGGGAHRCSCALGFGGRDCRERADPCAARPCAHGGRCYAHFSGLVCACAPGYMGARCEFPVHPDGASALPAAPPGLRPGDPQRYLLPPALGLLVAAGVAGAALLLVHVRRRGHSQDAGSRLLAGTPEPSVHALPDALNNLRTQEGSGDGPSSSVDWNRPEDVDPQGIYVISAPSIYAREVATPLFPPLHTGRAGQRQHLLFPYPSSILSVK

B1: hSC16.13 (antibody, V domains shown)
VH: QITLKESGPTLVKPTQTLTLTCTFSGFSLSTSGMGVGWIRQPPGKALEWLAHIWWDDVKRYSPSLKSRLTITKDTSKNQVVLTMTNMDPVDTATYYCARIVSFDNDVVSAMDYWGQGTLVTVSS
VL: DIQMTQSPSSLSASVGDRVTITCSASSSVSYMYWYQQKPGKAPKLLIYLTSNLASGVPSRFSGSGSGTDFTLTISSLQPEDFATYYCQQWRSNPFTFGQGTKLEIKR
notes: CDR-grafted humanized antibody; also called humanized SC16.13
B2: hSC16.25 (antibody, V domains shown)
VL: EIVLTQSPDFQSVTPKEKVTITCSASSSVSYMHWYQQKPDQSPKLLIKDSSKLASGVPSRFSGSGSGTDFTLTINSLEAEDAATYYCQQWSSNPLTFGQGTKLEIK
V domain: QITLKESGPTLVKPTQTLTLTCTFSGFSLSTSGMGVGWIRQPPGKALEWLTDIWWDDNKYYNPSLKSRLTITKDTSKNQVVLTMTNMDPVDTATYYCARRVNYYYDPYYAMDYWGQGTTLVTVS
notes: CDR-grafted humanized antibody; also called humanized SC16.25
B3: SC16.67 (antibody, V domains shown)
VH: EVQLVETGGGLVQPKGSLKLSCAVSAFTFTTYAMNWVRQAPGKGLEWVARIRNKSNNYATYYADSVKDRFTISRDDSQSMLYLQMNNLKIEDTAMYYCVFYYDYVYWGQGTLVTVSA
VL: QAVVTQESALTTSPGETVTLTCRSSTGAVTTSNYANWIQEKPDHLFTGLIGGTNNRAPGVPARFSGSLIGDKAALTITGAQTEDEAIYFCGLWYSNHLVFGGGTKLTVL
notes: murine anti-DLL3 mAb
B4: SC16.15 (antibody, V domains shown)
VH: QVQLQQSGAELAKPGASVKMSCKASGYTFTRYWIHWIKQRPGQGLEWIGYINPTTVYTEFNQNFKDKATLTADKSSTTASMQLSSLTSEDSAVYYCARGGSNFFDYWGQGTTLTVSS
VL: DIQMTQSPASLAASVGETVAITCRASENIYYNLAWYQQKQGKSPQLLIYTANSLEDGVPSRFSGSGSGTQYSLKINSMQPEDSATYFCKQAYDVPPTFGGGTKLEIK
B5: SC16.34 (antibody, V domains shown)
VH: QIQLVQSGPELKRPGETVKISCKASGYTFTNYGMNWVKQAPGKGLKWMGWINTYTGDPTYADDFKGRFAFSLETSASTAYLQINNLKNEDTATYFCARIGGNSPSDYWGQGTSLTVSS
VL: SIVMTQTPKFLLVSAGDRVTITCKASQSVSNDVAWYQQKPGQSPKLLIYYASNRYSGVPDRFTGSGYGTDFTFTISTVQAEDLAVYFCQQDYSSPWTFGGGTKLEIK
B6: SC16.4 (antibody, V domains shown)
VH: QIQLVQSGPELKKPGETVKISCKASGYTFTDYSMHWVKQAPGKGLKWMGWINTETGEPGYADDFKGRFAFSLETSASTAYLQINNLKNEDTATYFCARYDGYAMDYWGQGTSVTVSS
VL: DIQMTQTTSSLSASLGDRVTISCRASQDISNYLNWYQQKPDGTVKLLIYYTSRLHSGVPSRFSGSGSGTDYSLTISNLELEDIATYFCQQGDMLPWTFGGGTKLEIK
B7: SC16.56 (antibody, V domains shown)
VH: B5 VH with R13K, G49A, D57E, Y80S, N84I, G101D, N102S, S113T
VL: B5 VL with A34V, S56T, T63A, T72S, S93T, K107R
B8: SC16.65 (antibody, V domains shown)
VH: QVTLKESGPGILQPSQTLSLTCSFSGFSLSTSGMGVGWIRQPSGKGLEWLALIWWDDVKRYNPALKSRLTISKDASSSQVFLKIASVDTADTATYYCARIASYDYDVVYAMDYWGQGTSVSVSS
VL: QIVLTQSPALMSASPGEKVTMTCSVTSSVSYMYWYQQKPRSSPKPWIYLTSNLASGVPARFSGSGSGTSYSLTISSVEAEDAATYYCQQWRNNPFTFGSGTKVEIK
B9: SC16.8 (antibody, V domains shown)
VH: QAQLQQSGAELVRPGTSVKVSCKASGYAFTNYLIEWVKQRPGQGLEWIGVINPGTGGTNYNENFKGKATLTADKSSSTAYMQLSSLTSDDSAVYFCARSPYDYHEGAMDYWGQGTSVTVSS
VL: EIQMTQSPSSMSASLGDRITITCQATQDIVKNLNWYQQKPGKPPSFLIYYAIELAEGVPSRFSGSGSGSDYSLTISNLESEDFADYYCLQFYEFPFTFGAGTKLELK
B10: SC16.10 (antibody, V domains shown)
VH: QVTLKESGPGILQSSQTLSLTCSFSGFSLSTSGMGVGWIRQPSGKGLEWLAHIWWDDVKRYNPVLKSRLTISKDTSSSQVFLKIASVDTADTATYYCARLVDDLYYFDYWGQGTTLTVSS
VL: QIVLTQSPAIMSASLGERVTMTCTASSSVSSSYLHWYQQKPGSSPKLWIYSTSNLASGVPTRFSGSGSGTSYSLTISSMEAEDAATYYCHQYHRSPFTFGSGTKLEIK
B11: SC16.13 (antibody, V domains shown)
VH: B8 VH with L52H, A75T, A101V, Y103F, Y105N, Y109S, S121T
VL: B8 VL with M11V, V25A, T26S, V77M, N92S, V103L
B12: SC16.25 (antibody, V domains shown)
VH: QVTLKESGPGILQPSQTLSLTCSFSGFSLSTSGMGVGWIRQPSGEGLEWLTDIWWDDNKYYNPSLKSRLTISKDTSSNQVFLNITSVDTADTATYYCARRVNYYYDPYYAMDYWGQGTSVTVSS
VL: QIVLTQSPAIMSASPGEKVTMTCSASSSVSYMHWYQQKSGTSPKRWIYDSSKLASGVPARFSGSGSGTSYSLTISSMEAEDAATYYCQQWSSNPLTFGAGTKLELK
B13: SC16.39 (antibody, V domains shown)
VH: EVKLEESGGGLVQFGGSMKLSCAASGFTFSDAWMDWVRQSPEKGLEWVAEIRNKANNHATYYPESVKGRFTISRDDSKSRVYLQMNNLRAEDTGIYYCTGYSSFAYWGQGTLVTVSA
VL: B6 VL with I29V, S30I, G68R, L80P, F87Y, G91Y, D92S, M93E, L94R, W96Y

These binders were tested against T1, murine DLL3 on 293 cells (h293-mDLL3) (assay: assay and form of the mouse antigen not given on the sheet; table of properties of humanized constructs).

Row | Binder | binding result
1 | B1 | no binding
2 | B2 | no binding

What follows are binders tested against T1, murine DLL3 on 293 cells (h293-mDLL3) (assay: flow cytometry on 293 cells over-expressing murine DLL3).
Protocol: For the flow cytometry assays, 50 ×10^4 h293 cells transduced respectively with human, cynomolgus, rat or murine DLL3 were incubated for 30 minutes with 25-100 μL hybridoma supernatant. […] After 15 minutes of incubation, cells were washed twice with PBS/2% FCS and resuspended in PBS/2% FCS with DAPI and analyzed by flow cytometry using a FACSCanto IT as per the manufacturer's instructions.

Row | Binder | binding result
3 | B3 | no binding

What follows are binders tested against T2, human DLL3 on cells (h293-hDLL3 cells; …) (assay: cell-based or functional assay).

Row | Binder | EC50 of killing of OV26 NTX tumor cells with anti-mouse IgG Fab-saporin [pM]
4 | B4 | 0.14
5 | B5 | 5.7

Biological target: T2, human DLL3 on cells (h293-hDLL3 cells; …)
Assay: cell-based or functional assay
Remark: another data set of the same source

Row | Binder | % Live Cells (in vitro), KDY66 cells, antibody plus anti-mouse IgG Fab-saporin [%]
6 | B4 | 24
7 | B5 | 12
8 | B6 | 49
9 | B7 | 16
10 | B8 | 13
11 | B3 | 37
12 | B9 | 82
13 | B10 | 18
14 | B11 | 31
15 | B12 | 28
16 | B13 | 98
